Read-outs that look alike come from different tables or passages of the source.

The target in data set [1] is T1, GB1-SRSF1 RRM1+2 (UniProt Q07955 16-195). The experiment in a line: NMR titration.
The target of data set [2] is T1, GB1-SRSF1 RRM1+2. The data set is described as follows: NMR titration. The source holds these as a separate data set.

T1 sequence (Q07955 16-195): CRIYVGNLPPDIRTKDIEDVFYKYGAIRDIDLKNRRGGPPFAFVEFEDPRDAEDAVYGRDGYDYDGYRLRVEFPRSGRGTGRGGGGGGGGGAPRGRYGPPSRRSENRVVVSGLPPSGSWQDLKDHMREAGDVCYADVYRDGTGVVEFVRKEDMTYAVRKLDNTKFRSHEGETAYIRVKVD

B1: WT UCAGAGGA (ssRNA)
RNA: UCAGAGGA
For the molecule B1, the binding result with GB1-SRSF1 RRM1+2 [1] is on record as “binds”.

B2: UCACUGGA mutant (ssRNA)
RNA: UCACUGGA
On to B2, for which the binding result with GB1-SRSF1 RRM1+2 [2] was “binds”.
